From patent US20140087995A1 (published 2014)
Numbered stars: 1 amine (or outer) side, 2 acyl side, 3 side chain; on linkers, the order of the positions; unused ones are H or OH. Bridge positions count the residues as written; N and C are the ends. Square brackets hold non-standard residues; d marks the D form. Side chains are listed from the residue outwards. Ends that are not written are not given here. * marks the point of attachment. C20 diacid = O=C(O)CCCCCCCCCCCCCCCCCCC(=O)*; γGlu = O=C(O)[C@H](CCC(=O)[*:2])N[*:1]

Experiments:
[1] = biological target: T1, human amylin receptor (amylin 3(a) receptor: human calcitonin receptor coexpressed with RAMP-3) (human, UniProt P30988 25-474; O60896 24-148); assay: cell-based or functional assay
T1 sequence (looked up) 1: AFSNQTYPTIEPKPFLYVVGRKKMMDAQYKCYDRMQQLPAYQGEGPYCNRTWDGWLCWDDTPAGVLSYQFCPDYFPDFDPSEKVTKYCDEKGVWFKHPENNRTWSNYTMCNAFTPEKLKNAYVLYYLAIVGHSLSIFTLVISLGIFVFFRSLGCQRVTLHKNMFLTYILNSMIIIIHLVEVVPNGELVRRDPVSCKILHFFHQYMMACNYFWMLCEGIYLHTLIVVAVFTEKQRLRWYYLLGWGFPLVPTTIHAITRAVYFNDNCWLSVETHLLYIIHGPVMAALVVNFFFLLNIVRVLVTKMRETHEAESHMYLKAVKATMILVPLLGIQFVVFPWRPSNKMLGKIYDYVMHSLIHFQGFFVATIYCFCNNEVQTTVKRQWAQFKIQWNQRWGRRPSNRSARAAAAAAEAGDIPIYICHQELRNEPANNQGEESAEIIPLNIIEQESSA
T1 sequence (looked up) 2: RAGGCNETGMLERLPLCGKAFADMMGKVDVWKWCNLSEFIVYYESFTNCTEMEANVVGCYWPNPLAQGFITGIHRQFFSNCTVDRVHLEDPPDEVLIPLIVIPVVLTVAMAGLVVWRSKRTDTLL

[2] = biological target: T2, human calcitonin receptor (human, UniProt P30988 25-474); assay: cell-based or functional assay
T2 sequence (looked up): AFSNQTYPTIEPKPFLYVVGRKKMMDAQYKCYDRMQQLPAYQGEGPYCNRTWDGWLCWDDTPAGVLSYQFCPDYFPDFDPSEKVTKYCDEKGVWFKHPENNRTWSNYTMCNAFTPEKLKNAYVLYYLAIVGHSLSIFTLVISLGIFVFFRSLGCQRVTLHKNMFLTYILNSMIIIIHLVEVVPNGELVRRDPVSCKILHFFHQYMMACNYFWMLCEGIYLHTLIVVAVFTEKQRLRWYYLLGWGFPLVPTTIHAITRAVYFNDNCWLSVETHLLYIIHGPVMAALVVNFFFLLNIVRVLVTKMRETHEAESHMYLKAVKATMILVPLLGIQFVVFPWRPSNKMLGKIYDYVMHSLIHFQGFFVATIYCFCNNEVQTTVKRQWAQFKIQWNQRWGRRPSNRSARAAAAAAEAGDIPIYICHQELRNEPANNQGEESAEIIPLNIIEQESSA

Binder	hAmylin-R funct. EC50 (pM) [1]	Ratio hCT/hAmylin funct. [2]	hCTR funct. EC50 (pM) [2]
K([γGlu-γGlu-C20 diacid])CNTATCATQRLANFLRHSSPNFGAIPSSTPVGPRTY-NH2 (disulfide 2-7; N-terminus assumed; SMILES CC[C@H](C)[C@H](NC(=O)[C@H](C)NC(=O)CNC(=O)[C@H](Cc1ccccc1)NC(=O)[C@H](CC(N)=O)NC(=O)[C@@H]1CCCN1C(=O)[C@H](CO)NC(=O)[C@H](CO)NC(=O)[C@H](Cc1c[nH]cn1)NC(=O)[C@H](CCCNC(=N)N)NC(=O)[C@H](CC(C)C)NC(=O)[C@H](Cc1ccccc1)NC(=O)[C@H](CC(N)=O)NC(=O)[C@H](C)NC(=O)[C@H](CC(C)C)NC(=O)[C@H](CCCNC(=N)N)NC(=O)[C@H](CCC(N)=O)NC(=O)[C@@H](NC(=O)[C@H](C)NC(=O)[C@@H]1CSSC[C@H](NC(=O)[C@@H](N)CCCCNC(=O)CC[C@H](NC(=O)CC[C@H](NC(=O)CCCCCCCCCCCCCCCCCCC(=O)O)C(=O)O)C(=O)O)C(=O)N[C@@H](CC(N)=O)C(=O)N[C@@H]([C@@H](C)O)C(=O)N[C@@H](C)C(=O)N[C@@H]([C@@H](C)O)C(=O)N1)[C@@H](C)O)C(=O)N1CCC[C@H]1C(=O)N[C@@H](CO)C(=O)N[C@@H](CO)C(=O)N[C@H](C(=O)N1CCC[C@H]1C(=O)N[C@H](C(=O)NCC(=O)N1CCC[C@H]1C(=O)N[C@@H](CCCNC(=N)N)C(=O)N[C@H](C(=O)N[C@@H](Cc1ccc(O)cc1)C(N)=O)[C@@H](C)O)C(C)C)[C@@H](C)O)	333 pM	26	8660 pM
K([γGlu-γGlu-C20 diacid])CNTATCATQRLAEFLRHSSPNFGAIPSSTNVGPRTY-NH2 (disulfide 2-7; N-terminus assumed; SMILES CC[C@H](C)[C@H](NC(=O)[C@H](C)NC(=O)CNC(=O)[C@H](Cc1ccccc1)NC(=O)[C@H](CC(N)=O)NC(=O)[C@@H]1CCCN1C(=O)[C@H](CO)NC(=O)[C@H](CO)NC(=O)[C@H](Cc1c[nH]cn1)NC(=O)[C@H](CCCNC(=N)N)NC(=O)[C@H](CC(C)C)NC(=O)[C@H](Cc1ccccc1)NC(=O)[C@H](CCC(=O)O)NC(=O)[C@H](C)NC(=O)[C@H](CC(C)C)NC(=O)[C@H](CCCNC(=N)N)NC(=O)[C@H](CCC(N)=O)NC(=O)[C@@H](NC(=O)[C@H](C)NC(=O)[C@@H]1CSSC[C@H](NC(=O)[C@@H](N)CCCCNC(=O)CC[C@H](NC(=O)CC[C@H](NC(=O)CCCCCCCCCCCCCCCCCCC(=O)O)C(=O)O)C(=O)O)C(=O)N[C@@H](CC(N)=O)C(=O)N[C@@H]([C@@H](C)O)C(=O)N[C@@H](C)C(=O)N[C@@H]([C@@H](C)O)C(=O)N1)[C@@H](C)O)C(=O)N1CCC[C@H]1C(=O)N[C@@H](CO)C(=O)N[C@@H](CO)C(=O)N[C@H](C(=O)N[C@@H](CC(N)=O)C(=O)N[C@H](C(=O)NCC(=O)N1CCC[C@H]1C(=O)N[C@@H](CCCNC(=N)N)C(=O)N[C@H](C(=O)N[C@@H](Cc1ccc(O)cc1)C(N)=O)[C@@H](C)O)C(C)C)[C@@H](C)O, also called compound 110)	278 pM	29.3	8160 pM
K([γGlu-γGlu-C20 diacid])CNTATCATQRLAEFLRHSSPNFGAIPSSTNVGHETY-NH2 (disulfide 2-7; N-terminus assumed; SMILES CC[C@H](C)[C@H](NC(=O)[C@H](C)NC(=O)CNC(=O)[C@H](Cc1ccccc1)NC(=O)[C@H](CC(N)=O)NC(=O)[C@@H]1CCCN1C(=O)[C@H](CO)NC(=O)[C@H](CO)NC(=O)[C@H](Cc1c[nH]cn1)NC(=O)[C@H](CCCNC(=N)N)NC(=O)[C@H](CC(C)C)NC(=O)[C@H](Cc1ccccc1)NC(=O)[C@H](CCC(=O)O)NC(=O)[C@H](C)NC(=O)[C@H](CC(C)C)NC(=O)[C@H](CCCNC(=N)N)NC(=O)[C@H](CCC(N)=O)NC(=O)[C@@H](NC(=O)[C@H](C)NC(=O)[C@@H]1CSSC[C@H](NC(=O)[C@@H](N)CCCCNC(=O)CC[C@H](NC(=O)CC[C@H](NC(=O)CCCCCCCCCCCCCCCCCCC(=O)O)C(=O)O)C(=O)O)C(=O)N[C@@H](CC(N)=O)C(=O)N[C@@H]([C@@H](C)O)C(=O)N[C@@H](C)C(=O)N[C@@H]([C@@H](C)O)C(=O)N1)[C@@H](C)O)C(=O)N1CCC[C@H]1C(=O)N[C@@H](CO)C(=O)N[C@@H](CO)C(=O)N[C@H](C(=O)N[C@@H](CC(N)=O)C(=O)N[C@H](C(=O)NCC(=O)N[C@@H](Cc1c[nH]cn1)C(=O)N[C@@H](CCC(=O)O)C(=O)N[C@H](C(=O)N[C@@H](Cc1ccc(O)cc1)C(N)=O)[C@@H](C)O)C(C)C)[C@@H](C)O)	445 pM	15.8	7050 pM
K([γGlu-γGlu-C20 diacid])CNTATCATQRLA[dD]FLRHSSPNFGAIPSSTNVGSRTY-NH2 (disulfide 2-7; N-terminus assumed; SMILES CC[C@H](C)[C@H](NC(=O)[C@H](C)NC(=O)CNC(=O)[C@H](Cc1ccccc1)NC(=O)[C@H](CC(N)=O)NC(=O)[C@@H]1CCCN1C(=O)[C@H](CO)NC(=O)[C@H](CO)NC(=O)[C@H](Cc1c[nH]cn1)NC(=O)[C@H](CCCNC(=N)N)NC(=O)[C@H](CC(C)C)NC(=O)[C@H](Cc1ccccc1)NC(=O)[C@@H](CC(=O)O)NC(=O)[C@H](C)NC(=O)[C@H](CC(C)C)NC(=O)[C@H](CCCNC(=N)N)NC(=O)[C@H](CCC(N)=O)NC(=O)[C@@H](NC(=O)[C@H](C)NC(=O)[C@@H]1CSSC[C@H](NC(=O)[C@@H](N)CCCCNC(=O)CC[C@H](NC(=O)CC[C@H](NC(=O)CCCCCCCCCCCCCCCCCCC(=O)O)C(=O)O)C(=O)O)C(=O)N[C@@H](CC(N)=O)C(=O)N[C@@H]([C@@H](C)O)C(=O)N[C@@H](C)C(=O)N[C@@H]([C@@H](C)O)C(=O)N1)[C@@H](C)O)C(=O)N1CCC[C@H]1C(=O)N[C@@H](CO)C(=O)N[C@@H](CO)C(=O)N[C@H](C(=O)N[C@@H](CC(N)=O)C(=O)N[C@H](C(=O)NCC(=O)N[C@@H](CO)C(=O)N[C@@H](CCCNC(=N)N)C(=O)N[C@H](C(=O)N[C@@H](Cc1ccc(O)cc1)C(N)=O)[C@@H](C)O)C(C)C)[C@@H](C)O, Residue 14 is D-aspartic acid (printed 14d))	383 pM	–	100000 pM
K([γGlu-γGlu-C20 diacid])CNTATCATQRLAEFLRHSSPNFGAIPSSTNVGSRTY-NH2 (disulfide 2-7; N-terminus assumed; SMILES CC[C@H](C)[C@H](NC(=O)[C@H](C)NC(=O)CNC(=O)[C@H](Cc1ccccc1)NC(=O)[C@H](CC(N)=O)NC(=O)[C@@H]1CCCN1C(=O)[C@H](CO)NC(=O)[C@H](CO)NC(=O)[C@H](Cc1c[nH]cn1)NC(=O)[C@H](CCCNC(=N)N)NC(=O)[C@H](CC(C)C)NC(=O)[C@H](Cc1ccccc1)NC(=O)[C@H](CCC(=O)O)NC(=O)[C@H](C)NC(=O)[C@H](CC(C)C)NC(=O)[C@H](CCCNC(=N)N)NC(=O)[C@H](CCC(N)=O)NC(=O)[C@@H](NC(=O)[C@H](C)NC(=O)[C@@H]1CSSC[C@H](NC(=O)[C@@H](N)CCCCNC(=O)CC[C@H](NC(=O)CC[C@H](NC(=O)CCCCCCCCCCCCCCCCCCC(=O)O)C(=O)O)C(=O)O)C(=O)N[C@@H](CC(N)=O)C(=O)N[C@@H]([C@@H](C)O)C(=O)N[C@@H](C)C(=O)N[C@@H]([C@@H](C)O)C(=O)N1)[C@@H](C)O)C(=O)N1CCC[C@H]1C(=O)N[C@@H](CO)C(=O)N[C@@H](CO)C(=O)N[C@H](C(=O)N[C@@H](CC(N)=O)C(=O)N[C@H](C(=O)NCC(=O)N[C@@H](CO)C(=O)N[C@@H](CCCNC(=N)N)C(=O)N[C@H](C(=O)N[C@@H](Cc1ccc(O)cc1)C(N)=O)[C@@H](C)O)C(C)C)[C@@H](C)O, also called compound 89)	404 pM	–	11200 pM
K([γGlu-γGlu-C20 diacid])CNTATCATQRLADFLRHSSPNFGAIPSSTNVGPRTY-NH2 (disulfide 2-7; N-terminus assumed; SMILES CC[C@H](C)[C@H](NC(=O)[C@H](C)NC(=O)CNC(=O)[C@H](Cc1ccccc1)NC(=O)[C@H](CC(N)=O)NC(=O)[C@@H]1CCCN1C(=O)[C@H](CO)NC(=O)[C@H](CO)NC(=O)[C@H](Cc1c[nH]cn1)NC(=O)[C@H](CCCNC(=N)N)NC(=O)[C@H](CC(C)C)NC(=O)[C@H](Cc1ccccc1)NC(=O)[C@H](CC(=O)O)NC(=O)[C@H](C)NC(=O)[C@H](CC(C)C)NC(=O)[C@H](CCCNC(=N)N)NC(=O)[C@H](CCC(N)=O)NC(=O)[C@@H](NC(=O)[C@H](C)NC(=O)[C@@H]1CSSC[C@H](NC(=O)[C@@H](N)CCCCNC(=O)CC[C@H](NC(=O)CC[C@H](NC(=O)CCCCCCCCCCCCCCCCCCC(=O)O)C(=O)O)C(=O)O)C(=O)N[C@@H](CC(N)=O)C(=O)N[C@@H]([C@@H](C)O)C(=O)N[C@@H](C)C(=O)N[C@@H]([C@@H](C)O)C(=O)N1)[C@@H](C)O)C(=O)N1CCC[C@H]1C(=O)N[C@@H](CO)C(=O)N[C@@H](CO)C(=O)N[C@H](C(=O)N[C@@H](CC(N)=O)C(=O)N[C@H](C(=O)NCC(=O)N1CCC[C@H]1C(=O)N[C@@H](CCCNC(=N)N)C(=O)N[C@H](C(=O)N[C@@H](Cc1ccc(O)cc1)C(N)=O)[C@@H](C)O)C(C)C)[C@@H](C)O, also called compound 130)	162 pM	44.9	7280 pM
